The test concerns the target N-terminal Nanoluciferase-tagged p97-N domain (human). Put plainly: FRET or BRET; NanoBRET in p47-knockout U2OS cells: Nanoluciferase-p97-N donor, p47-UBX-HaloTag acceptor, co-transfected with antibody-fragment or p47-FLAG plasmids; compared with scFv-RNase and scFab-RNase controls.

N-terminal Nanoluciferase-tagged p97-N domain (human), sequence (P55072 2-806): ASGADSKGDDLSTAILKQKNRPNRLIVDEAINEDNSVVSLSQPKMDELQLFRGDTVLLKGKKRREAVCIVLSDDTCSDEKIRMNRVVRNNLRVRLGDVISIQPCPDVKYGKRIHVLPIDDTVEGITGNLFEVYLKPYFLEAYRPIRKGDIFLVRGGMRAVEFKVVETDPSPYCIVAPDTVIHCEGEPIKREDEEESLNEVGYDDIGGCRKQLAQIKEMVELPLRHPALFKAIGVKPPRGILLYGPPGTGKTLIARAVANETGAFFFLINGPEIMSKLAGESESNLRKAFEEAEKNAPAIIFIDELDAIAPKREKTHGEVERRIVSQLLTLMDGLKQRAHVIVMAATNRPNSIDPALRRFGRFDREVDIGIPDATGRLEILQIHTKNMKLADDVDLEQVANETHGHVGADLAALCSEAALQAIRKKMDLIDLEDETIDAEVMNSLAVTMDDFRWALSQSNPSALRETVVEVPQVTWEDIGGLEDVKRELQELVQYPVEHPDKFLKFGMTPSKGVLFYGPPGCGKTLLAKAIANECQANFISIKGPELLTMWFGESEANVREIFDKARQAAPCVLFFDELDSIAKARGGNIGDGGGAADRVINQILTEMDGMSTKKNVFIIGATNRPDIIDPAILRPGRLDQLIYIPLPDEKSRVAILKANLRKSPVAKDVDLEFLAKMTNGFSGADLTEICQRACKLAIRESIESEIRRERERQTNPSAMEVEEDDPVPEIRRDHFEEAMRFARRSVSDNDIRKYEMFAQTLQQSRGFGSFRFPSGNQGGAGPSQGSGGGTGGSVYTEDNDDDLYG

B1: p47-FLAG (natural protein)
chain: MAAERQEALREFVAVTGAEEDRARFFLESAGWDLQIALASFYEDGGDEDIVTISQATPSSVSRGTAPSDNRVTSFRDLIHDQDEDEEEEEGQRFYAGGSERSGQQIVGPPRKKSPNELVDDLFKGAKEHGAVAVERVTKSPGETSKPRPFAGGGYRLGAAPEEESAYVAGEKRQHSSQDVHVVLKLWKSGFSLDNGELRSYQDPSNAQFLESIRRGEVPAELRRLAHGGQVNLDMEDHRDEDFVKPKGAFKAFTGEGQKLGSTAPQVLSTSSPAQQAENEAKASSSILIDESEPTTNIQIRLADGGRLVQKFNHSHRISDIRLFIVDARPAMAATSFILMTTFPNKELADESQTLKEANLLNAVIVQRLT
With B1, the reduction of the BRET ratio of the p97-N/p47-UBX pair stood at 15%.

The record behind these values is publication PMC9335864.
